Usually IC50 stands for the concentration needed to halve the response being measured. Lower therefore signals inhibition by little substance.

We go through one molecule from patent US20150197568A1 (AstraZeneca / MedImmune, published 2015).

One assay has as its target Mature human IL-6 (human, UniProt P05231 30-212). As to the kind of experiment: cell-based or functional assay.
Assay [1] addresses T1, HIS FLAG tagged human IL-6 (human, UniProt P05231 30-212).
T1 construct: In house; also called HIS FLAG IL-6; HIS/FLAG IL-6
The assay is described as follows: HTRF receptor-ligand competition; HIS FLAG human IL-6 vs biotinylated sIL-6R. How it is done:
Unique scFvs were expressed again in bacteria and purified by affinity chromatography (as described by Bannister et al. Purified IgG samples of these clones were also prepared as described in section 1.3. The potencies of these samples were determined by competing a dilution series of the purified preparation against biotinylated sIL-6R for binding to HIS FLAG tagged human IL-6 (in house E. coli derived).
Purified scFv and IgG from positive clones identified from screening were tested in a HTRF® assay for inhibition of binding of HIS FLAG tagged human IL-6 to biotinylated IL-6R. 8 nM biotinylated human IL-6R was pre-incubated for 30 minutes at room temperature in the dark, with 8 nM streptavidin XL^{ent!}™. All dilutions were done in phosphate buffered saline (PBS) containing 0.4 M potassium fluoride and 0.1% BSA (assay buffer).

In the next assay the target is T2, Murine IL-6 (murine, UniProt P08505 25-211).
T2 construct: also called mouse IL-6
T2 sequence (looked up): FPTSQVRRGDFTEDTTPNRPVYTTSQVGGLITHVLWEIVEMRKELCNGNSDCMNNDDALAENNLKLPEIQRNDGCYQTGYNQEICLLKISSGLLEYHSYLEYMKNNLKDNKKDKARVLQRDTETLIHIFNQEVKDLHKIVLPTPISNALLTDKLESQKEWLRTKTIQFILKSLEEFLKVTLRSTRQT
The assay is described as follows: DELFIA epitope competition; protein titrated against biotinylated HIS FLAG IL-6 on immobilised CAN022D10 IgG. How it is done: (§1) Titrations of IL-6 species including cynomolgus (in house E. Coli derived), human HIS FLAG IL-6 (in house HEK-EBNA derived), rat and murine IL-6 (both R & D Systems) were tested in each assay to establish the species cross-reactivity of the antibodies. Details of the protocol are provided in the Materials and Methods section.
(§2) Purified IgG were adsorbed onto 96-well Maxisorp microtitre plates (Nunc) in PBS at a concentration which gave a significant signal when biotinylated human IL-6 was added at approximately its estimated Kd for that particular IgG. Excess IgG was washed away with PBS-Tween (0.1% v/v) and the wells were blocked with PBS-Marvel (3% w/v) for 1 h. […] These mixtures were then transferred onto the blocked IgG and allowed to equilibrate for 1.5 h. Unbound antigen was removed by washing with PBS-Tween (0.1% v/v), while the remaining biotinylated human IL-6 was detected by streptavidin-Europium3+ conjugate (DELFIA® detection, PerkinElmer). Time-resolved fluorescence was measured at 620 nm on an EnVision plate reader (PerkinElmer). Fluorescence data was converted to % specific binding (100% was determined from control wells containing biotinylated human IL-6 but no competitor, 0% was from wells containing biotinylated human IL-6 and a 100-fold excess of unbiotinylated human IL-6). Resultant data were analysed using Prism curve fitting software (Graphpad) to determine IC50 values according to Equation 3.

Another assay addresses T3, Rat IL-6 (rat, UniProt P20607 25-211).
T3 sequence (looked up): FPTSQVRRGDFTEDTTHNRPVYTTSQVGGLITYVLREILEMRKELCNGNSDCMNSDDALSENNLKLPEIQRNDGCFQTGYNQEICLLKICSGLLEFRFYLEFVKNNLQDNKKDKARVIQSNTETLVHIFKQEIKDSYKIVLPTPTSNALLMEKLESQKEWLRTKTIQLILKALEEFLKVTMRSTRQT
The assay is described as above. How it is done:
as §1, §2

A further assay has as its target T4, Human IL-11 (human, UniProt P20809 22-199, limits assumed).
T4 sequence (looked up): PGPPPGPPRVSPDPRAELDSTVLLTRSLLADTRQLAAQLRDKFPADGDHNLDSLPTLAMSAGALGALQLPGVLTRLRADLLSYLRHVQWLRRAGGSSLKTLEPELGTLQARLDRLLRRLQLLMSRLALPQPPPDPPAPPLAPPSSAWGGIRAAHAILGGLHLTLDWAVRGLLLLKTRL
Described as above. The method, then: as §1, §2

A further assay has as its target T5, Human CNTF (human, UniProt P26441 2-200).
T5 construct: also called ciliary neurotrophic factor
T5 sequence (looked up): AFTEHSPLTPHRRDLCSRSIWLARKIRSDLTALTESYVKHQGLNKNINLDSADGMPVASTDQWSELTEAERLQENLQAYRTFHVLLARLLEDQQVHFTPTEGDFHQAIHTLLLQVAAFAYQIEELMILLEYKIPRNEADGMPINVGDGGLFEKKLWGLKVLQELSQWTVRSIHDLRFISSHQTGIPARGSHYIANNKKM
The description is as above. The method, then:
as §1, §2

Another assay concerns the target Human LIF (human, UniProt P15018 23-202). The assay is described as above. How it is done:
as §1, §2

The next assay concerns the target T6, Human Oncostatin M (human, UniProt P13725 26-221).
T6 construct: also called OsM
T6 sequence (looked up): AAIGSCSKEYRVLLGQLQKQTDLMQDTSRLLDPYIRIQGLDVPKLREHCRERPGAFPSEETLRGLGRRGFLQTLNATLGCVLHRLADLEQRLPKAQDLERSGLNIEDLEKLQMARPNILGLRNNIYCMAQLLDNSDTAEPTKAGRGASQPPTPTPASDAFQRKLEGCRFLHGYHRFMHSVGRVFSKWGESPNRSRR
Described as above. How it is done:
as §1, §2

Sequence of Human LIF (P15018 23-202 limits assumed): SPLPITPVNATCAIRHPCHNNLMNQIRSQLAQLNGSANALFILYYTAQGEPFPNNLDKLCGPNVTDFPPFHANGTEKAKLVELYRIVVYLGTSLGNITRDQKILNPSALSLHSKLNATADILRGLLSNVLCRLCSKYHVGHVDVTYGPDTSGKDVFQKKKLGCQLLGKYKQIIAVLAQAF

B1: CAN022D10 IgG (antibody, V domains shown)
VH: EVQLVQSGGGLIQPGGSLRLSCAASGFTISSNYMIWVRQAPGKGLEWVSDLYYYAGDTYYADSVKGRFTMSRDISKNTVYLQMNSLRAEDTGVYYCARWADDHYYYIDVWGRGTLVTVSS
VL: DIVMTQSPSTLSASVGDRVTITCRASQGISSWLAWYQQKPGRAPKVLIYKASTLESGVPSRFSGSGSGTDFTLTISSLQPEDFATYYCQQSYSTPWTFGQGTKLEIKR
notes: Biotinylated in the HTRF antibody-ligand assay; also called CAN22D10; parent IgG
Take B1: in the assay with Mature human IL-6, the “IC50, IL-6 induced TF-1 cell proliferation” value came out at 93 nM. For the same molecule, in the assay with Mature human IL-6, the “IC50, endogenous IL-6 induced VEGF release from human synovial fibroblasts” value was 45 nM. This molecule also had an IC50 in assay [1] of 0.31 nM. In addition, the binding result with Murine IL-6, in the assay with Rat IL-6, with Human IL-11, with Human CNTF, in the assay with Human LIF and in the assay with Human Oncostatin M was “no binding” throughout.
